Reference: US11098081B2, “Epitope tag and method for detection and/or purification of tagged polypeptides” (ChromoTek GmbH, priority 2015, dated 2021)
“And” between values parts separate entries of the source, which are not always exact repeats. Equal entries are not always repeated.

B1: BC2-Nb: nanobody; variable region of a heavy chain antibody of Camelidae, 122 aa, SEQ ID NO: 6, binds the BC2 epitope tag (protein)
VHH: QVQLVESGGGLVQPGGSLTLSCTASGFTLDHYDIGWFRQAPGKEREGVSCINNSDDDTYYADSVKGRFTIFMDNAKDTVYLQMNSLKPEDTAIYYCAEARGCKRGRYEYDFWGQGTQVTVSS
modifications: BC2-Nb
B2: BC2-NbATTO647: BC2-Nb coupled to the organic dye ATTO647 (conjugate)
VHH: B1 VHH
modifications: left off: small tags and cut ends
notes: BC2-Nb coupled to the organic dye ATTO647
B3: BC2-NbAF488: BC2-Nb chemically coupled to the organic dye AlexaFluor488 (conjugate)
VHH: B1 VHH
modifications: left off: small tags and cut ends
notes: BC2-Nb chemically coupled to the organic dye AlexaFluor488

What was measured:
[1] = target: GFP with a C-terminal BC2-tag (GFPBC2T) (Aequorea victoria, UniProt P42212, F64L/H231L/S65T)
Experimental: For surface plasmon resonance spectroscopy (SPR)-based affinity measurements. […] The obtained data sets were evaluated using the 1:1 Langmuir binding model with mass transfer. As a control.
The affinity measurements of the BC2 nanobody and the indicated mutants thereof to GFPBC2T were performed using surface plasmon resonance spectroscopy with a Biacore 3000 instrument (GE-Healthcare). GFPBC2T was covalently coupled on dextran fibers of a CM5 sensorchip (GE Healthcare) to a response level of 500 RU. One flow cells was activated and blocked in the absence of protein to determine background, another was loaded with untagged GFP as a control against unspecific binding. […] Each measurement was done in duplicates. As running dilution buffer 10 mM HEPES pH 7.4, 150 mM NaCl, 0.5% surfactant Tween was used. Measurements were performed at 25° C. For the association of BC2-Nb a How rate of 50 μl/min for 15 s and for the dissociation a flow rate of 50 μl/min for 600 s was applied. The regeneration was induced by injection of 23 μl regeneration solution at a flow rate of 30 μl/min. As regeneration solution 10 mM glycine-HCl pH 2.0 was used. The data was evaluated using the software Bia evaluation 4.1 and the 1:1 Langmuir binding model with mass transfer.

[2] = target: T1, full-length β-catenin or domains (N-terminus aa 1-119, armadillo domain, C-terminus) (Homo sapiens, UniProt P35222); assay: Domain mapping of β-catenin binders (microsphere-based sandwich immunoassay); assay type: binding
T1 construct: full-length β-catenin or the following domains of β-catenin: N-terminus aa 1-119; made in house; host or cells: E. coli BL21(DE3) CodonPlus-RIL
T1 sequence (P35222 1-119): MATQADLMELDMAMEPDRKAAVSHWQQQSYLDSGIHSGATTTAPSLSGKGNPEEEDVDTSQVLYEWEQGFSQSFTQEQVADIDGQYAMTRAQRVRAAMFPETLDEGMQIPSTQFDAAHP
Experimental: Microsphere-immobilized Nbs were incubated with GST-fusion constructs comprising full-length β-catenin or indicated domains. Captured β-catenin constructs were detected with domain-specific antibodies. For direct comparison, fluorescence intensities obtained with domain-specific antibodies were normalized to signals obtained with an anti-GST-antibody.
BC2-Nb was covalently immobilized on microspheres using a modified manufacturer's protocol described in Poetz et al. ((2009) Microsphere-based co-immunoprecipitation in multiplex. Analytical biochemistry 395, 244-248). Immobilized BC2-Nb was incubated with purified proteins representing full-length β-catenin or the following domains of β-catenin: N-terminus aa 1-119, armadillo domain aa 120-683 and C-terminus aa 683-781. Purified Glutathion-S-transferase (GST) was used as a negative control. Concentrations range from 0.25 μg/ml to 2 μg/ml. Bound proteins were detected with domain-specific antibodies including ABC antibody clone 8E7 (Merck Millipore) specific for the N-terminus, anti-β-catenin 9G10 (Merck Millipore) targeting the armadillo domain and anti-β-catenin clone 14 (Becton Dickinson) specifically recognizing the C-terminus. To detect unspecific binding of the BC2-Nb to GST an antibody against GST (6G9, ChromoTek) was used. […] The microspheres were measured in a FlexMap 3D instrument (Luminex). […]

[3] = test system: peptides of the β-catenin N-terminus (aa 1-127); assay: Epitope mapping (pepscan) with biotinylated BC2-Nb on peptide-coated microspheres; assay type: binding, human
Source text: (SEQ ID NO: 4), […] […] (SEQ ID NO: 65).
As negative controls, microspheres comprising Ovalbumin and the Myc-peptide ([…]) covalently coupled to OVA-microspheres were used.

[4] = test system: HeLa cells expressing mCherry-VIMBC2T or GFP-PCNABC2T; assay: Immunocytochemistry with fluorescently labeled BC2-Nb; assay type: cell-based, human; conditions: mCherry-VIMBC2T (AF488) or GFP-PCNABC2T (ATTO647)
Source text: (b) HeLa cells ectopically expressing mCherry-VIMBC2T or eGFP-PCNABC2T were fixed either with methanol or PFA, respectively, followed by staining with the indicated fluorescently labeled BC2-Nbs and DAPI. Scale bar 25 μm.
HeLa cells ectopically expressing untagged mCherry-VIM or eGFP-PCNA were fixed with methanol or PFA, respectively, and stained with the indicated fluorescently labeled BC2-Nbs and DAPI. Scale bar 25 μm.
For immunocytochemistry 5-10×10^3 adherent HeLa cells per well of a μClear 96 well plate (Greiner) were transfected with plasmids coding for C-terminally BC2-tagged vimentin or PCNA After 24 h, cells were washed once with PBS and fixed with 4% w/v paraformaldehyde (PFA) in PBS for 15 mm at RT or with methanol for 15 mm at −20° C. After removal of the fixative and washing twice with PBS, cells were blocked and permeabilized with 3% w/v BSA and 0.1% v/v Triton X-100 in PBS for 1 h at RT Subsequently, labeled BC2 nanobody was added with a final concentration of 10-15 μg/ml and 4′,6-diamidino-2-phenyl indole (DAPI, Sigma Aldrich) with a final concentration of 1 μg/ml for overnight incubation at 4° C. Unbound nanobody and DAPI were removed by washing 3 limes with a mixture of PBS and 6% v/v 5 M NaCl in H2O. Images of FIG. 4 b and FIG. 10 b were acquired with an Image Xpress micro XL system. Confocal images of FIG. 10 a were acquired with an ImageXpress Micro Confocal.

[5] = test system: BC2-tagged proteins (eGFP-PCNABC2T, mCherry-VIMBC2T); assay: Western blot detection with fluorescently labeled BC2-Nb; assay type: binding
Experimental: (b) For Western blot detection using fluorescently labeled B2-Nb (BC2-NbAF488) indicated amounts of the input fractions (as shown in (a)) were subjected to SDS-PAGE and immunoblotting. The Western blots were probed with BC2-N488 followed by detection with anti-PCNA (left panel) or anti-Vimentin (right panel) antibodies. As loading control blots were probed with an anti-GAPDH antibody (lower panel).
Denaturing polyacrylamide gel electrophoresis (SDS-PAGE) was performed according to standard procedures Protein samples were boiled in 2× SDS-sample buffer (60 mM Tris/HCl, pH 6.8; 2% (w/v) SDS; 5% (v/v) 2-mercaploethanol, 10% (v/v) glycerol, 0.02% bromophenole blue). For immunoblotting proteins were transferred on nitrocellulose membranes (Bio-Rad Laboratories).
Purified BC2 nanobody (1 mg) was labeled with the NHS-activated fluorescent dyes Alexa488 (Life technologies) or Atto647 (Atto-Tec) according to manufacturer's guidelines. After coupling, unbound dye was removed by separation on PD-10 Desalting Columns (GE Healthcare). For immunoblot analysis. 5 μg of BC2-NbAF488 was diluted in 4 ml 3% BSA diluted in TBS, 0.05% Tween20 and Western blots were incubated for 1 h at RT.

Row | Molecule | Rmax [RU] ([1]; SPR, GFPBC2T on CM5 chip, 1:1 Langmuir binding model with mass transfer) | Kd ([1]; SPR, GFPBC2T on CM5 chip, 25° C., 1:1 Langmuir binding model with mass transfer) | kon (M^−1s^−1) ([1]; SPR, association rate constant) | koff (s^−1) ([1]; SPR, dissociation rate constant) | fold higher affinity compared to FLAG, HA, c-myc or EPEA systems ([1]; comparison with literature values of prior-art tag systems) | β-catenin domain recognized [2] | binding to epitope peptide with phosphorylated Ser23 [3] | binding to overlapping 15-mer peptides ([3]; 29 peptides covering aa 1-127) | amino acid sequence recognized (minimal epitope) ([3]; N- and C-terminally truncated peptides) | co-localization with BC2-tagged protein in fixed HeLa cells [4] | signal for endogenous β-catenin in Western blot ([5]; in the presence of BC2-tagged proteins) | specificity in Western blot detection ([5]; untagged proteins not detected)
1 | B1 | 170 ± 0.34 RU | 1.4 nM and ~1.4 nM | 4.6 ± 0.04 × 10^5 M^−1s^−1 | 6.4 ± 0.27 × 10^−4 s^−1 | 10-100 fold | exclusively recognizes the N-terminal domain (aa 1-119) | completely abolishes binding | strong binding to two consecutive peptides comprising the residues 13-31 | PDRKAAVSHWQQ |  |  | 
2 | B2 |  |  |  |  |  |  |  |  |  | clear co-localization |  | 
3 | B3 |  |  |  |  |  |  |  |  |  | strong co-localization | no signal for β-catenin was detected | highly specific for BC2-tagged proteins
